# Laboratory results published in paper PMC5059719, “Tetrameric structure of the restriction DNA glycosylase R.PabI in complex with nonspecific double-stranded DNA” (Scientific Reports, 2016).
# Changes are numbered by the printed parent chain.
# B1: 20 bp nonspecific dsDNA (co-crystallization) (dsDNA)
# DNA 1: GCACTAGTTCGAACTAGTGC
# DNA 2: GCACTAGTTCGAACTAGTGC
# B2: 20 bp specific probe (GTAC) (dsDNA)
# DNA 1: GCATAGCTGTACAGCTATGC
# DNA 2: GCATAGCTGTACAGCTATGC
# B3: 20 bp nonspecific probe (same sequence as co-crystallization) (dsDNA)
# DNA 1: GCACTAGTTCGAACTAGTGC
# DNA 2: GCACTAGTTCGAACTAGTGC
# B4: 20 bp nonspecific probe without GT, TA, AC steps (dsDNA)
# DNA 1: GCATCGATTCGAATCGATGC
# DNA 2: GCATCGATTCGAATCGATGC
# Columns and labels:
# R.PabI R32A E63A = biological target: T1, R.PabI R32A E63A (Pyrococcus abyssi, UniProt Q9V2B6 8-226, R32A;E63A); assay: X-ray crystallography; 1.9 A; tetramer sandwiches dsDNA; 0.2 M calcium acetate, 0.1 M imidazole pH 8.0, 10% PEG8000; EMSA: 0.1 uM DNA, 0.1-12.8 uM R.PabI dimer, 10 mM MES pH 6.0, 300 mM NaCl, 50 uM poly-dT (40 nt) competitor, 30 min at 4 C; 12% PAGE in 0.5x TBE at 4 C; settings: protein: recombinant; chain copies: 4; blunt; self-complementary, 2 copies of S1
# T1 sequence: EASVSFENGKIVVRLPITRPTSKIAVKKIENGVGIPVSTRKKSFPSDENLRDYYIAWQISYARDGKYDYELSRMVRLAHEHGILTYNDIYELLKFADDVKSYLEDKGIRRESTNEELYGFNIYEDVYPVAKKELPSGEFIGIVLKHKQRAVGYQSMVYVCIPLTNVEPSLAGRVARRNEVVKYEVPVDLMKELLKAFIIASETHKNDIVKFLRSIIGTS
# R.PabI Y68F [1] = biological target: T2, R.PabI Y68F (Pyrococcus abyssi, UniProt Q9V2B6 8-226, Y68F); assay: EMSA; dimer shift at low concentration, supershift at high; poly-dT competitor; EMSA: 0.1 uM DNA, 0.1-12.8 uM R.PabI dimer, 10 mM MES pH 6.0, 300 mM NaCl, 50 uM poly-dT (40 nt) competitor, 30 min at 4 C; 12% PAGE in 0.5x TBE at 4 C; settings: protein: recombinant; chain copies: 2; label: 5'-fluorescein; blunt; self-complementary, 2 copies of S3
# T2 sequence: T1 sequence with A25R, A56E, Y61F
# R.PabI Y68F R70D = biological target: T3, R.PabI Y68F R70D (Pyrococcus abyssi, UniProt Q9V2B6 8-226, Y68F;R70D); assay: EMSA; supershift only, about the same as Y68F; poly-dT competitor; EMSA: 0.1 uM DNA, 0.1-12.8 uM R.PabI dimer, 10 mM MES pH 6.0, 300 mM NaCl, 50 uM poly-dT (40 nt) competitor, 30 min at 4 C; 12% PAGE in 0.5x TBE at 4 C; settings: protein: recombinant; chain copies: 4; label: 5'-fluorescein; blunt; self-complementary, 2 copies of S1
# T3 sequence: T1 sequence with A25R, A56E, Y61F, R63D
# R.PabI Y68F R70D D71R = biological target: T4, R.PabI Y68F R70D D71R (Pyrococcus abyssi, UniProt Q9V2B6 8-226, Y68F;R70D;D71R); assay: EMSA; similar to Y68F; poly-dT competitor; EMSA: 0.1 uM DNA, 0.1-12.8 uM R.PabI dimer, 10 mM MES pH 6.0, 300 mM NaCl, 50 uM poly-dT (40 nt) competitor, 30 min at 4 C; 12% PAGE in 0.5x TBE at 4 C; settings: protein: recombinant; chain copies: 4; label: 5'-fluorescein; blunt; self-complementary, 2 copies of S1
# T4 sequence: T1 sequence with A25R, A56E, Y61F, R63D, D64R
# R.PabI Y68F D71R = biological target: T5, R.PabI Y68F D71R (Pyrococcus abyssi, UniProt Q9V2B6 8-226, Y68F;D71R); assay: EMSA; dimer shift at 0.2-1.6 uM plus supershift; tetramerization inhibited; poly-dT competitor; EMSA: 0.1 uM DNA, 0.1-12.8 uM R.PabI dimer, 10 mM MES pH 6.0, 300 mM NaCl, 50 uM poly-dT (40 nt) competitor, 30 min at 4 C; 12% PAGE in 0.5x TBE at 4 C; settings: protein: recombinant; chain copies: 2; label: 5'-fluorescein; blunt; self-complementary, 2 copies of S1
# T5 sequence: T1 sequence with A25R, A56E, Y61F, D64R
# R.PabI Y68F [2] = biological target: T2, R.PabI Y68F; assay: EMSA; predominant supershift (tetramer), dimer band very weak; poly-dT competitor; EMSA: 0.1 uM DNA, 0.1-12.8 uM R.PabI dimer, 10 mM MES pH 6.0, 300 mM NaCl, 50 uM poly-dT (40 nt) competitor, 30 min at 4 C; 12% PAGE in 0.5x TBE at 4 C; settings: protein: recombinant; chain copies: 2; label: 5'-fluorescein; blunt; self-complementary, 2 copies of S1
# R.PabI Y68F [3] = biological target: T2, R.PabI Y68F; assay: EMSA; about the same binding as co-crystallization DNA; poly-dT competitor; EMSA: 0.1 uM DNA, 0.1-12.8 uM R.PabI dimer, 10 mM MES pH 6.0, 300 mM NaCl, 50 uM poly-dT (40 nt) competitor, 30 min at 4 C; 12% PAGE in 0.5x TBE at 4 C; settings: protein: recombinant; chain copies: 2; label: 5'-fluorescein; blunt; self-complementary, 2 copies of S2
binder,measurement,setting,value
B1,binding result,R.PabI R32A E63A,binds
B2,binding result,R.PabI Y68F [1],binds
B3,binding result,R.PabI Y68F R70D,binds
same,binding result,R.PabI Y68F R70D D71R,binds
same,binding result,R.PabI Y68F D71R,binds
same,binding result,R.PabI Y68F [2],binds
B4,binding result,R.PabI Y68F [3],binds
